Measurements reported in patent US20120225828A1.
Bridge positions count the residues as written; N and C are the ends. Square brackets hold non-standard residues; d marks the D form. dPhe(3-Cl) = N[C@H](Cc1cccc(Cl)c1)C(=O)O; dPhe(4-Cl) = N[C@H](Cc1ccc(Cl)cc1)C(=O)O; dPhe(4-Me) = Cc1ccc(C[C@@H](N)C(=O)O)cc1; dPhe(2-Cl) = N[C@H](Cc1ccccc1Cl)C(=O)O; dPhe(4-F) = N[C@H](Cc1ccc(F)cc1)C(=O)O; dPhe(2-F) = N[C@H](Cc1ccccc1F)C(=O)O; Nle = CCCC[C@H](N)C(=O)O; Orn = NCCC[C@H](N)C(=O)O; Dab = NCC[C@H](N)C(=O)O; Dap = NC[C@H](N)C(=O)O

Experiments:
[1] = target: recombinant human melanocortin-4 receptor hMCR-4 (human) (UniProt P32245); assay: competition with [I125]-NDP-α-MSH; HEK-293 hMCR-4 membrane homogenates
[2] = target: recombinant human melanocortin-1 receptor hMCR-1a (human) (UniProt Q01726); assay: competition with [I125]-NDP-α-MSH; HEK-293 hMCR-1a membrane homogenates
Sequence of recombinant human melanocortin-1 receptor hMCR-1a (human) (Q01726 whole entry): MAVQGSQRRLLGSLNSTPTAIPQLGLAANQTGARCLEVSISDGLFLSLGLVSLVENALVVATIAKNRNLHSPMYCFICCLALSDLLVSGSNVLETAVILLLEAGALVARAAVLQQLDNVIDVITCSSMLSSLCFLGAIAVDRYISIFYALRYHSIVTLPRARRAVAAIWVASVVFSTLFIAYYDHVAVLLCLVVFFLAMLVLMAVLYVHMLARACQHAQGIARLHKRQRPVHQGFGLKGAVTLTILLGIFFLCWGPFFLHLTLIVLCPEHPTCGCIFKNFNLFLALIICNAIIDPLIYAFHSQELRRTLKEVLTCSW

Sequence of recombinant human melanocortin-4 receptor hMCR-4 (human) (P32245 whole entry): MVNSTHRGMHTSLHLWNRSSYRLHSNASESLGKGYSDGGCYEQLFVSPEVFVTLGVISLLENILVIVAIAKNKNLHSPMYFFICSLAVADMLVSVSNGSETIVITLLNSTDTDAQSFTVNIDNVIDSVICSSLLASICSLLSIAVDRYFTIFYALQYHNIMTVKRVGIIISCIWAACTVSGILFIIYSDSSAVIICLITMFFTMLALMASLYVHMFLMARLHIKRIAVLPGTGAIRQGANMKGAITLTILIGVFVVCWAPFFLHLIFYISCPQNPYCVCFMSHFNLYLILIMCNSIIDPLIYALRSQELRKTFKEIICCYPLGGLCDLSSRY

Row | Ki [1] | Ki [2] | Substance
1 | 455 nM | – | Ac-Nle-cyclo(Glu-Ala-D-Phe-Arg-Dab)-Trp-NH2 (peptide)
2 | 10000 nM | 3 nM | Ac-[Nle]E[Orn][dPhe(4-Me)]R[Dab]-NH2 (lactam 2-6)
3 | 860 nM | 0.065 nM | Ac-Nle-cyclo(Dap-His-D-Phe-Arg-Dab)-Trp-NH2 with bridge C(═O)-(CH2)2-C(═O) (peptide)
4 | 95 nM | – | Ac-Nle-cyclo(Glu-Lys-D-Phe-Arg-Dab)-Trp-NH2 (peptide)
5 | 95 nM | – | Ac-Nle-cyclo(Glu-Lys-D-Phe-Arg-Dab)-Trp-NH2 (SEQ ID NO: 56) (peptide)
6 | 0.095 nM | 0.02 nM | Ac-Nle-cyclo(Glu-His-D-Phe-Arg-Dab)-Nal 2-NH2 (SEQ ID NO: 14) (peptide)
7 | 10000 nM | 18 nM | Ac-[Nle]E[Orn][dPhe(2-F)]R[Dab]-NH2 (lactam 2-6)
8 | 10000 nM | 10000 nM | Ac-[Nle]EH[dF][Dab]-NH2 (lactam 2-5)
9 | 10000 nM | 7 nM | Ac-[Nle]EH[dF]R[Dab]-NH2 (lactam 2-6)
10 | 185 nM | 3 nM | Ac-[Nle]EP[dF]R[Dab]W-NH2 (lactam 2-6)
11 | 535 nM | – | Ac-D-Phe-cyclo(Glu-His-D-Phe-Arg-Dab)-Trp-NH2 (peptide)
12 | 10000 nM | 645 nM | Ac-[Nle]EH[dF]A[Dab]-NH2 (lactam 2-6; SEQ ID NO: 48)
13 | 10000 nM | 7 nM | Ac-[Nle]EH[dF]R[Dab]-NH2 (lactam 2-6; SEQ ID NO: 47)
14 | 3620 nM | 4 nM | Ac-[Nle]E[Orn][dF]R[Dab]-NH2 (lactam 2-6)
15 | 10000 nM | 2 nM | Ac-Nle-cyclo(Glu-His-D-Phe-Arg-Dab)-Trp-OH (peptide)
16 | 10000 nM | 35 nM | Ac-[Nle]E[Orn][dPhe(3-Cl)]R[Dab]-NH2 (lactam 2-6)
17 | 10000 nM | 40 nM | Ac-Nle-cyclo(Glu-Orn-D-Phe(3,4-F)-Arg-Dab)-NH2 (peptide)
18 | 380 nM | 0.015 nM | Ac-Nle-cyclo(Dab-His-D-Phe-Arg-Dab)-Trp-NH2 with bridge C(═O)-(CH2)2-C(═O) (peptide)
19 | 10000 nM | 2250 nM | Ac-Nle-cyclo(Glu-Pro-D-Phe-Arg-Dab)-NH2 (peptide)
20 | 98 nM | 0.45 nM | Ac-Nle-cyclo(Glu-Cit-D-Phe-Arg-Dab)-Trp-NH2 (SEQ ID NO: 54) (peptide)
21 | 110 nM | – | Ac-Nle-cyclo(Glu-His-D-Phe-Arg-Dab)-Trp-NH2 (peptide)
22 | 455 nM | – | Ac-Nle-cyclo(Glu-Ala-D-Phe-Arg-Dab)-Trp-NH2 (SEQ ID NO: 52) (peptide)
23 | 10000 nM | 20 nM | Ac-[Nle]E[Orn][dPhe(4-F)]R[Dab]-NH2 (lactam 2-6)
24 | 3 nM | 0.01 nM | Ac-Nle-cyclo(Glu-His-D-Phe-Arg-Dab)-Nal 2-NH2 (peptide)

Row | Ki [1] | Ki [2] | Substance
25 | 98 nM | 0.05 nM | Ac-Nle-cyclo(Glu-Dab-D-Phe-Arg-Dab)-Trp-NH2 (SEQ ID NO: 57) (peptide)
26 | 45 nM | 0.015 nM | Ac-Nle-cyclo(Glu-Orn-D-Phe-Arg-Dab)-Trp-NH2 (SEQ ID NO: 58) (peptide)
27 | 1320 nM | 2 nM | Ac-[Nle]DH[dF]R[Dap]W-NH2 (lactam 2-6)
28 | 10000 nM | 645 nM | Ac-[Nle]EH[dF]A[Dab]-NH2 (lactam 2-6)
29 | 98 nM | 0.45 nM | Ac-Nle-cyclo(Glu-Cit-D-Phe-Arg-Dab)-Trp-NH2 (peptide)
30 | 358 nM | – | Ac-Nle-cyclo(Glu-His-D-Phe-Arg-Dap)-Trp-NH2 (peptide)
31 | 10000 nM | – | Ac-[Nle]EH[dF]A[Dab]W-NH2 (lactam 2-6)
32 | 10000 nM | 2 nM | Ac-Nle-cyclo(Glu-Orn-D-Phe(4-OMe)-Arg-Dab)-NH2 (peptide)
33 | 20 nM | – | Ac-Nle-cyclo(Glu-Arg-D-Phe-Arg-Dab)-Trp-NH2 (peptide)
34 | 45 nM | 0.015 nM | Ac-Nle-cyclo(Glu-Orn-D-Phe-Arg-Dab)-Trp-NH2 (peptide)
35 | 7480 nM | 2 nM | Ac-[Nle]EH[dF]R[Dab]A-NH2 (lactam 2-6)
36 | 4700 nM | 1 nM | Ac-Nle-cyclo(Glu-His-D-Phe-Arg-Dap)-Trp-OH (peptide)
37 | 33 nM | 0.55 nM | Ac-Nle-cyclo(Glu-His-D-Phe-Arg-Dab)-D-Trp-NH2 (peptide)
38 | 295 nM | – | Ac-Nle-cyclo(Glu-His-D-Phe-Arg-Orn)-Trp-NH2 (peptide)
39 | 7380 nM | 2 nM | Ac-[Nle]EH[dF]R[Dab]K-NH2 (lactam 2-6)
40 | 325 nM | 0.025 nM | Ac-Nle-cyclo(Dab-His-D-Phe-Arg-Dap)-Trp-NH2 with bridge C(═O)-(CH2)2-C(═O) (peptide)
41 | 10000 nM | 30 nM | Ac-[Nle]E[Orn][dPhe(2-Cl)]R[Dab]-NH2 (lactam 2-6)
42 | 98 nM | 0.05 nM | Ac-Nle-cyclo(Glu-Dab-D-Phe-Arg-Dab)-Trp-NH2 (peptide)
43 | 20 nM | – | Ac-Nle-cyclo(Glu-Arg-D-Phe-Arg-Dab)-Trp-NH2 (SEQ ID NO: 53) (peptide)
44 | 680 nM | 0.03 nM | Ac-Nle-cyclo(Dap-His-D-Phe-Arg-Dap)-Trp-NH2 with bridge C(═O)-(CH2)2-C(═O) (peptide)
45 | 0.75 nM | 0.005 nM | Ac-Nle-cyclo(Glu-His-D-Phe-Arg-Dab)-Nal 1-NH2 (peptide)
46 | 10000 nM | 9 nM | Ac-[Nle]EH[dF]G[Dab]W-NH2 (lactam 2-6)
47 | 2 nM | 0.1 nM | Ac-Nle-cyclo(Glu-His-D-Phe-Arg-Dab)-D-Nal 1-NH2 (peptide)
48 | 1240 nM | 2 nM | Ac-[Nle]E[Orn][dPhe(4-Cl)]R[Dab]-NH2 (lactam 2-6)
